In publication PMC10798858:

Target: Laa1-myc (budding yeast (S. cerevisiae)) (UniProt P39526)
Test: co-IP

Chain of UniProt P39526 (P39526 whole entry, the tested form may be a part): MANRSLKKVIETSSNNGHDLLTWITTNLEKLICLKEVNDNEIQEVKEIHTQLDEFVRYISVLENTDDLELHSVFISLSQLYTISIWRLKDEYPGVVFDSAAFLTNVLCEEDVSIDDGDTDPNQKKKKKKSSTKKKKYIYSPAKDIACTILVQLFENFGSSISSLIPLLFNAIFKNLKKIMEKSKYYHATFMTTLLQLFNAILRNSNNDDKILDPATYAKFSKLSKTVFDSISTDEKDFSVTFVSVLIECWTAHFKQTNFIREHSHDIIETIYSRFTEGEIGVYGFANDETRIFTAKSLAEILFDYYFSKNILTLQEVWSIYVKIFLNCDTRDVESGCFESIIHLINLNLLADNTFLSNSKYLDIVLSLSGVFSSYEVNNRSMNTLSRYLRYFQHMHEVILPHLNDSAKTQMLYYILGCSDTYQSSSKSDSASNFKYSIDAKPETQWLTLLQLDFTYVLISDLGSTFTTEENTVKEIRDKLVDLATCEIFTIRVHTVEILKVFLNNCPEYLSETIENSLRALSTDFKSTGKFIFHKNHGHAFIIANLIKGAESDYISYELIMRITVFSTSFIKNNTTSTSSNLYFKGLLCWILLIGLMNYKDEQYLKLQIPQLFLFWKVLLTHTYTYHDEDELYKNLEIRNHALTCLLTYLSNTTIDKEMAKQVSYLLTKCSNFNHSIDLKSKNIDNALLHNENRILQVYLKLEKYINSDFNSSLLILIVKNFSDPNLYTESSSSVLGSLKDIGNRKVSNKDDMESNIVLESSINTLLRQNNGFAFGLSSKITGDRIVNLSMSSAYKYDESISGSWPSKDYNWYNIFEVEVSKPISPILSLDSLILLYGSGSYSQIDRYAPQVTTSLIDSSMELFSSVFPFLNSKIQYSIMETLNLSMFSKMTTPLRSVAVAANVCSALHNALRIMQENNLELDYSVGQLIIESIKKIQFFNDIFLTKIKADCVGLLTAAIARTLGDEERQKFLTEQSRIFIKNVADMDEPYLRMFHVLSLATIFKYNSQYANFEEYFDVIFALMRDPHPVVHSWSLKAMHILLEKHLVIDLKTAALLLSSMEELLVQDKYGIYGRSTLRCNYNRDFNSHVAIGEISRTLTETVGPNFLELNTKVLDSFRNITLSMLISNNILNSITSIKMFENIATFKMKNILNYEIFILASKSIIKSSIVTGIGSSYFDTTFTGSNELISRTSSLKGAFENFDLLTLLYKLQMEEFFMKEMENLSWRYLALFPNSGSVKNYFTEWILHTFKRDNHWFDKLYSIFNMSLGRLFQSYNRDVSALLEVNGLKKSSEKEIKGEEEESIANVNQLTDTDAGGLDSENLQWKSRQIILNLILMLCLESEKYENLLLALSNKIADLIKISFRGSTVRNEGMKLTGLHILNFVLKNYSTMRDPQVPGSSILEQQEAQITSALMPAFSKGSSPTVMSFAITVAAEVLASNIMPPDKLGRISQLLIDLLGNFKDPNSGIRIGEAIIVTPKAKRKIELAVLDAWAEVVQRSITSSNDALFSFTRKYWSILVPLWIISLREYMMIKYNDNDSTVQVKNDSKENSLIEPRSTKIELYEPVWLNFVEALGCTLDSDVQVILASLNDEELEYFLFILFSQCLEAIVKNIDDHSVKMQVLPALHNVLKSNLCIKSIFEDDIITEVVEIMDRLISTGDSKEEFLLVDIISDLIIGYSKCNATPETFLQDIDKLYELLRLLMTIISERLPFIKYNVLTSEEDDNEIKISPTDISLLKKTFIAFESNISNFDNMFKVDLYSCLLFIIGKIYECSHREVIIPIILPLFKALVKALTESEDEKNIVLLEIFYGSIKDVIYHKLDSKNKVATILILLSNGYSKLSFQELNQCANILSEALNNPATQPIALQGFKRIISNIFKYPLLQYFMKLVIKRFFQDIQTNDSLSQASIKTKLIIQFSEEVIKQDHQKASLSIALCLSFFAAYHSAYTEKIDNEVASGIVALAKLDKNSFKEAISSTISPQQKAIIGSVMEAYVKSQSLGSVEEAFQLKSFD

interaction with Laa1, percent of wild type (% of wild-type levels) | Substance
60 | Lft1-ΔHR1 tagged with 6-HIS-TEV-3FLAG (HTF) (from UniProt Q03703 1-340) (natural protein)
60 | Lft1-ΔHR3 tagged with 6-HIS-TEV-3FLAG (HTF) (from UniProt Q03703 1-340) (natural protein)
